In US20230340419A1, “METHODS FOR GENERATION OF MOUSE AND HUMAN URETERIC BUD ORGANOIDS AND COLLECTING DUCT ORGANOIDS” (University of Southern California, priority 2020, published 2023):

Tests used:
Type in all cases: cell-based, mouse
[1] = test system: Wnt11-RFP UB organoid; test: Stage III 1st round screening of growth factors and small molecules for UB organoid culture condition; details: reagent added to FGF9 + C3 + TTNPB + GDNF; compared to that control group
Excerpt: We employed this Wnt11-RFP reporter system as a readout to screen for a culture condition that maintained the progenitor identity of UPCs in vitro. T-shaped UBs were manually isolated from E11.5 kidneys of Wnt11-RFP mice, and immediately embedded into Matrigel to set up a 3D culture platform that supported epithelial branching. In this 3D culture format, built on previous efforts towards the ex vivo culture of UB, hundreds of different combinations of growth factors and small molecules were tested (see also the Materials and Techniques section below for details under subheading “Screening for optimal UB culture condition”).
We systematically screened the optimal UB culture condition in four different stages (Stages I-IV).
In Stage III, based on the optimized recipe consisting of FGF9, TTNPB, CHIR99021 (3 μM) and GDNF, we preformed our 1st round of screening of growth factors and small molecules targeting major developmental pathways (e.g. TGF-β, BMP, Wnt, FGF, Hedgehog and Notch) and others. The branching morphogenesis, growth rate and Wnt11-RFP were recorded as readouts (Table 1). […] Representative images were taken at least for LDN193189, A83-01, and R-Spondin 1. These individual hits were then subjected to a 2nd round of screening to test their effects in various combinations, eventually leading to the identification of the optimal UB progenitor culture medium UBCM consisting of FGF9, TTNPB, CHIR99021 (3 μM), GDNF, LDN193189, A83-01, R-Spondin1, JAKI and SB202190.

[2] = test system: Wnt11-RFP UB organoid; test: Withdrawal of individual components from UBCM (Stage IV validation); details: component withdrawn from UBCM
Excerpt: To determine whether UBCM culture conditions enabled clonal growth from a single UPC, dissociated E11.5 UBs were embedded at clonal density in Matrigel and cultured in UBCM medium. Around 30% of the single cells self-organized into E11.5 UB-like budding structures within 5 days, though a smaller percentage (3-5%) maintained Wnt11-RFP (FIG. 1G), an efficiency similar to clonal organoid formation for Lgr5^+ intestinal stem cells. Importantly, the clonally-derived Wnt11-RFP^+ budding structures were identical to intact E11.5 UB-derived organoids in both branching morphology and growth rate (Table 3, FIG. 1H).
Lastly, in Stage IV, we asked whether each of the components in UBCM was essential.

[3] = test system: UB organoids; test: 2nd round of CD differentiation condition screening (qRT-PCR of Aqp2 and Foxi1); details: qRT-PCR, 7 days, under hBI+FGF9+Y27632 condition
Procedure: The functions of the mature renal CD system are carried out by two major cell populations that are intermingled throughout the entire CD network. The more abundant principal cells (PCs) concentrate the urine and regulate Na^+/K^+ homeostasis via water and Na^+/K^+ transporters. The less abundant α- and β-intercalated cells (ICs) regulate normal acid-base homeostasis via secretion of H^+ or HCO3^− into the urine. The absence of an in vitro system recapitulating PC and IC development in an appropriate 3D context, constrains physiological exploration, disease modeling and drug screening on the renal CD system. With this limitation in mind, we developed a screen to establish conditions supporting the differentiation of CD organoids, assaying expression of Aqp2 and Foxi1, definitive markers for PC and IC lineages, respectively, by quantitative reverse transcription PCR (qRT-PCR), following 7 days of culture under variable but defined culture conditions (FIG. 2A).
Agonists or antagonists targeting major developmental pathways (e.g. TGF-β, BMP, Wnt, FGF, Hedgehog and Notch) were tested, together with hormonal inputs known to regulate PC or IC activity (aldosterone and vasopressin).

B1: FGF4: member of the FGF family (protein, UniProt P08620 31-206, looked up)
Fibroblast growth factor 4: APTAPNGTLEAELERRWESLVALSLARLPVAAQPKEAAVQSGAGDYLLGIKRLRRLYCNVGIGFHLQALPDGRIGGAHADTRDSLLELSPVERGVVSIFGVASRFFVAMSSKGKLYGSPFFTDECTFKEILLPNNYNAYESYKYPGMFIALSKNGKTKKGNRVSPTMKVTHFLPRL
With B1 the Wnt11-RFP [1] was “Worse”.

B2: R-Spondin 1: UBCM component (protein, UniProt Q2MKA7 21-263, looked up)
R-spondin-1: SRGIKGKRQRRISAEGSQACAKGCELCSEVNGCLKCSPKLFILLERNDIRQVGVCLPSCPPGYFDARNPDMNKCIKCKIEHCEACFSHNFCTKCKEGLYLHKGRCYPACPEGSSAANGTMECSSPAQCEMSEWSPWGPCSKKQQLCGFRRGSEERTRRVLHAPVGDHAACSDTKETRRCTVRRVPCPEGQKRRKGGQGRRENANRNLARKESKEAGAGSRRRKGQQQQQQQGTVGPLTSAGPA
B2 was tested, and the Wnt11-RFP [1] was “Better”.

B3: FGF10: member of the FGF family (protein, UniProt O15520 38-208, looked up)
Fibroblast growth factor 10: QALGQDMVSPEATNSSSSSFSSPSSAGRHVRSYNHLQGDVRWRKLFSFTKYFLKIEKNGKVSGTKKENCPYSILEITSVEIGVVAVKAINSNYYLAMNKKGKLYGSKEFNNDCKLKERIEENGYNTYASFNWQHNGRQMYVALNGKGAPRRGQKTRRKNTSAHFLPMVVHS
With B3 the Organoid growth [1] was “Slower” and the Wnt11-RFP [1] was “Worse”.

B4: GDNF: glial cell-derived neurotrophic factor (protein, UniProt P39905 78-211, looked up)
Glial cell line-derived …: SPDKQMAVLPRRERNRQAAAANPENSRGKGRRGQRGKNRGCVLTAIHLNVTDLGLGYETKEELIFRYCSGSCDAAETTYDKILKNLSRNRRLVSDKVGQACCRPIAFDDDLSFLDDNLVYHILRKHSAKRCGCI
For B4, the “Effect of withdrawal of the component from UBCM on organoid growth” value [2] was “growth arrest”.

B5: FGF8: member of the FGF family (protein, UniProt P55075 23-233, looked up)
Fibroblast growth factor 8: QEGPGRGPALGRELASLFRAGREPQGVSQQHVREQSLVTDQLSRRLIRTYQLYSRTSGKHVQVLANKRINAMAEDGDPFAKLIVETDTFGSRVRVRGAETGLYICMNKKGKLIAKSNGKGKDCVFTEIVLENNYTALQNAKYEGWYMAFTRKGRPRKGSKTRQHQREVHFMKRLPRGHHTTEQSLRFEFLNYPPFTRSLRGSQRTWAPEPR
B5 was tested, and the Wnt11-RFP [1] was “Worse”.

B6: BMP7: growth factor tested in screening (protein, UniProt P18075 293-431, looked up)
Bone morphogenetic protein 7: STGSKQRSQNRSKTPKNQEALRMANVAENSSSDQRQACKKHELYVSFRDLGWQDWIIAPEGYAAYYCEGECAFPLNSYMNATNHAIVQTLVHFINPETVPKPCCAPTQLNAISVLYFDDSSNVILKKYRNMVVRACGCH
For B6, the Aqp2 expression [3] was “dramatically increased”, the Foxi1 expression [3] was “dramatically increased” and the Wnt11-RFP [1] was “Better”.
